Laboratory results as given in ChEMBL document CHEMBL1153925, “Synthesis, characterization and biological activity of ring-substituted 6-benzylamino-9-tetrahydropyran-2-yl and 9-tetrahydrofuran-2-ylpurine derivatives” (Bioorg Med Chem, 2009).

Tests used:
Settings in all cases: Zea mays
[1] = substrate: CC(C)=CCNc1ncnc2[nH]cnc12
[2] = substrate: COc1ccc(CN)cc1
[3] = substrate: COc1ccc(CNc2ncnc3c2ncn3C2CCCCO2)cc1
[4] = substrate: COc1cccc(CN)c1
[5] = substrate: COc1cccc(CNc2ncnc3c2ncn3C2CCCCO2)c1
[6] = substrate: NCc1ccc(O)cc1
[7] = substrate: O[C@@H]1[C@H](O)[C@H](O)CO[C@H]1n1cnc2c(NCc3ccccc3)ncnc21
[8] = substrate: Oc1ccc(CNc2ncnc3c2ncn3C2CCCCO2)cc1
[9] = substrate: Oc1cccc(CNc2ncnc3c2ncn3C2CCCCO2)c1
[10] = substrate: Oc1cccc(CNc2ncnc3nc[nH]c23)c1
[11] = substrate: c1ccc(CNc2ncnc3[nH]cnc23)cc1
[12] = substrate: c1ccc(CNc2ncnc3c2ncn3C2CCCCO2)cc1
[13] = biological target: 6-(4-hydroxybenzylamino)purine
[14] = substrate: CC(C)=CCNc1ncnc2[nH]cnc12; remark: listed apart in the source
[15] = substrate: Oc1ccc(CNc2ncnc3c2ncn3C2CCCCO2)cc1; remark: listed apart in the source
[16] = substrate: Oc1cccc(CNc2ncnc3c2ncn3C2CCCCO2)c1; remark: listed apart in the source
[17] = substrate: Oc1cccc(CNc2ncnc3nc[nH]c23)c1; remark: listed apart in the source
[18] = substrate: c1ccc(CNc2ncnc3[nH]cnc23)cc1; remark: listed apart in the source
[19] = substrate: c1ccc(CNc2ncnc3c2ncn3C2CCCCO2)cc1; remark: listed apart in the source
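Wherever Km is given: zea mays CKX1 produced in Pichia pastoris, enzyme activity followed as aldehyde formation detected with the 4-aminophenol method.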

B1: Cytokinin dehydrogenase 1 (Zea mays), Q9T0N8 (protein)
chain: MAVVYYLLLAGLIACSHALAAGTPALGDDRGRPWPASLAALALDGKLRTDSNATAAASTDFGNITSALPAAVLYPSSTGDLVALLSAANSTPGWPYTIAFRGRGHSLMGQAFAPGGVVVNMASLGDAAAPPRINVSADGRYVDAGGEQVWIDVLRASLARGVAPRSWNDYLYLTVGGTLSNAGISGQAFRHGPQISNVLEMDVITGHGEMVTCSKQLNADLFDAVLGGLGQFGVITRARIAVEPAPARARWVRFVYTDFAAFSADQERLTAPRPGGGGASFGPMSYVEGSVFVNQSLATDLANTGFFTDADVARIVALAGERNATTVYSIEATLNYDNATAAAAAVDQELASVLGTLSYVEGFAFQRDVAYAAFLDRVHGEEVALNKLGLWRVPHPWLNMFVPRSRIADFDRGVFKGILQGTDIVGPLIVYPLNKSMWDDGMSAATPSEDVFYAVSLLFSSVAPNDLARLQEQNRRILRFCDLAGIQYKTYLARHTDRSDWVRHFGAAKWNRFVEMKNKYDPKRLLSPGQDIFN
- Km [1]: 1.8 µM
- kcat [1]: 0.208 s⁻¹
- kcat [2]: 0.476 s⁻¹
- kcat [3]: 0.256 s⁻¹
- kcat [4]: 0.145 s⁻¹
- kcat [5]: 0.006 s⁻¹
- Km [6]: 5.5 µM
- kcat [6]: 0.871 s⁻¹
- kcat [7]: 0.218 s⁻¹
- Km [8]: 33.8 µM
- kcat [8]: 0.195 s⁻¹
- Km [9]: 125 µM
- kcat [9]: 0.032 s⁻¹
- Km [10]: 24.4 µM
- kcat [10]: 0.244 s⁻¹
- Km [11]: 29.6 µM
- kcat [11]: 0.225 s⁻¹
- Km [12]: 98.9 µM
- kcat [12]: 0.069 s⁻¹
- kcat/Km [13]: 0.158
- kcat/Km [14]: 0.116
- kcat/Km [15]: 5800 M⁻¹ s⁻¹
- kcat/Km [16]: 0.0003
- kcat/Km [17]: 0.01
- kcat/Km [18]: 0.0076
- kcat/Km [19]: 0.0007
